Experimental data taken from the supplement of paper PMC9112550, “Optimization of the antimicrobial peptide Bac7 by deep mutational scanning” (BMC Biology, 2022).

test system: Escherichia coli TOP10; assay: shrunken log2 fold change of peptide-encoding DNA abundance (4.5 h post-induction vs induction); higher = less antimicrobial activity (less host growth inhibition); details: time post-induction: 4.5 h; library: site-saturation at positions 5, 18, 19, 20
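Also: peptides expressed intracellularly from a pBAD plasmid library in pooled LB shake-flask culture, induced with 0.3% L-arabinose, DNA abundance read by NGS, three biological replicates, DESeq2 with apeglm shrinkage.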

Compared with RRIRVRPPRLPRPRPRPYPEPRP, RRIRCRPPRLPRPRPRPVRYPRP is lower in “shrunken log2 fold change” value: 1.13 for the first, 0.0829 for the second.

RRIRHRPPRLPRPRPRPTRTPRP and RRIRVRPPRLPRPRPRPHPSPRP are within 0.2 log units of each other in “shrunken log2 fold change” value: 0.365 for the first, 0.168 for the second.

RRIRCRPPRLPRPRPRPRVYPRP and RRIRFRPPRLPRPRPRPHEYPRP are within 0.2 log units of each other in “shrunken log2 fold change” value: -0.217 for the first, -0.264 for the second.

First: RRIRGRPPRLPRPRPRPSFWPRP
Second: RRIRPRPPRLPRPRPRPVTSPRP
The “shrunken log2 fold change” value of the first is higher: 0.66 for the first, 0.0344 for the second.

Compared with RRIRYRPPRLPRPRPRPHLPPRP, RRIRVRPPRLPRPRPRPEQCPRP is higher in “shrunken log2 fold change” value: -0.542 for the first, 0.171 for the second.

RRIRIRPPRLPRPRPRPASYPRP and RRIRNRPPRLPRPRPRPAHTPRP are within 0.2 log units of each other in “shrunken log2 fold change” value: -0.0337 for the first, 0.121 for the second.

Going from RRIRFRPPRLPRPRPRPHPMPRP to RRIRLRPPRLPRPRPRPDSSPRP, the “shrunken log2 fold change” value rises from -0.367 to 0.00161.

RRIRIRPPRLPRPRPRPRQNPRP and RRIRERPPRLPRPRPRPWGVPRP are within 0.2 log units of each other in “shrunken log2 fold change” value: -0.459 for the first, -0.284 for the second.

Compared with RRIRWRPPRLPRPRPRPAFCPRP, RRIRRRPPRLPRPRPRPIYRPRP is lower in “shrunken log2 fold change” value: 0.143 for the first, -0.273 for the second.

Going from RRIRFRPPRLPRPRPRPPYDPRP to RRIRGRPPRLPRPRPRPVPRPRP, the “shrunken log2 fold change” value rises from -0.49 to 0.806.

RRIRWRPPRLPRPRPRPNRIPRP and RRIRKRPPRLPRPRPRPFRQPRP are within 0.2 log units of each other in “shrunken log2 fold change” value: -0.115 for the first, -0.0695 for the second.

Compared with RRIRTRPPRLPRPRPRPFPHPRP, RRIRSRPPRLPRPRPRPIYPPRP is lower in “shrunken log2 fold change” value: -0.247 for the first, -0.766 for the second.

RRIRIRPPRLPRPRPRPEHIPRP and RRIRTRPPRLPRPRPRPMHVPRP are within 0.2 log units of each other in “shrunken log2 fold change” value: -0.142 for the first, -0.0197 for the second.

RRIRQRPPRLPRPRPRPFSMPRP and RRIRHRPPRLPRPRPRPDKMPRP are within 0.2 log units of each other in “shrunken log2 fold change” value: -0.0842 for the first, -0.0794 for the second.

First: RRIRKRPPRLPRPRPRPTHVPRP
Second: RRIRHRPPRLPRPRPRPGNPPRP
The “shrunken log2 fold change” value of the first is lower: -0.305 for the first, 0.0424 for the second.

RRIRLRPPRLPRPRPRPAASPRP and RRIRNRPPRLPRPRPRPRTDPRP are within 0.2 log units of each other in “shrunken log2 fold change” value: 0.0421 for the first, 0.089 for the second.

Going from RRIRQRPPRLPRPRPRPRHEPRP to RRIRNRPPRLPRPRPRPERLPRP, the “shrunken log2 fold change” value rises from -0.131 to 0.0695.

Going from RRIRVRPPRLPRPRPRPSLFPRP to RRIRCRPPRLPRPRPRPTKTPRP, the “shrunken log2 fold change” value rises from -0.269 to 0.137.

First: RRIRVRPPRLPRPRPRPDHQPRP
Second: RRIRKRPPRLPRPRPRPAFWPRP
The “shrunken log2 fold change” value of the first is lower: -0.00679 for the first, 0.625 for the second.

Compared with RRIRQRPPRLPRPRPRPRLKPRP, RRIRRRPPRLPRPRPRPNFPPRP is higher in “shrunken log2 fold change” value: 0.161 for the first, 0.46 for the second.

Going from RRIRERPPRLPRPRPRPDRQPRP to RRIRSRPPRLPRPRPRPTQPPRP, the “shrunken log2 fold change” value rises from -0.0719 to 0.215.

Going from RRIRNRPPRLPRPRPRPYHCPRP to RRIRERPPRLPRPRPRPSSMPRP, the “shrunken log2 fold change” value falls from -0.0116 to -0.284.

RRIRPRPPRLPRPRPRPDIFPRP and RRIRHRPPRLPRPRPRPGVTPRP are within 0.2 log units of each other in “shrunken log2 fold change” value: 0.0196 for the first, 0.00739 for the second.

First: RRIRSRPPRLPRPRPRPAHKPRP
Second: RRIRWRPPRLPRPRPRPAFVPRP
The “shrunken log2 fold change” value of the first is lower: -0.152 for the first, 0.139 for the second.

Going from RRIRQRPPRLPRPRPRPANDPRP to RRIRPRPPRLPRPRPRPALMPRP, the “shrunken log2 fold change” value rises from -0.103 to 0.31.

RRIRQRPPRLPRPRPRPGRNPRP and RRIRHRPPRLPRPRPRPQRCPRP are within 0.2 log units of each other in “shrunken log2 fold change” value: -0.0272 for the first, -0.00202 for the second.

Going from RRIRGRPPRLPRPRPRPCGEPRP to RRIRGRPPRLPRPRPRPLVYPRP, the “shrunken log2 fold change” value falls from 0.931 to 0.0199.

Compared with RRIRWRPPRLPRPRPRPRGYPRP, RRIRERPPRLPRPRPRPKEGPRP is lower in “shrunken log2 fold change” value: 0.209 for the first, -0.129 for the second.

First: RRIRWRPPRLPRPRPRPCYEPRP
Second: RRIRGRPPRLPRPRPRPCGPPRP
The “shrunken log2 fold change” value of the first is lower: -0.136 for the first, 1.29 for the second.

RRIRVRPPRLPRPRPRPLWHPRP and RRIRGRPPRLPRPRPRPQEPPRP are within 0.2 log units of each other in “shrunken log2 fold change” value: -0.0301 for the first, 0.134 for the second.

Compared with RRIRCRPPRLPRPRPRPGHSPRP, RRIRHRPPRLPRPRPRPVLEPRP is higher in “shrunken log2 fold change” value: -0.347 for the first, 0.338 for the second.

Compared with RRIRIRPPRLPRPRPRPCKKPRP, RRIRPRPPRLPRPRPRPPEPPRP is higher in “shrunken log2 fold change” value: -0.0718 for the first, 0.787 for the second.

Going from RRIRHRPPRLPRPRPRPPRTPRP to RRIRVRPPRLPRPRPRPVGAPRP, the “shrunken log2 fold change” value falls from 1.03 to 0.329.

RRIRVRPPRLPRPRPRPRQYPRP and RRIRRRPPRLPRPRPRPCLTPRP are within 0.2 log units of each other in “shrunken log2 fold change” value: 0.00898 for the first, 0.0744 for the second.

Going from RRIRKRPPRLPRPRPRPPYAPRP to RRIRDRPPRLPRPRPRPFSMPRP, the “shrunken log2 fold change” value falls from 0.424 to -0.506.

Going from RRIRGRPPRLPRPRPRPLCLPRP to RRIRVRPPRLPRPRPRPFPSPRP, the “shrunken log2 fold change” value falls from 0.437 to -0.127.

Compared with RRIRDRPPRLPRPRPRPLSTPRP, RRIRMRPPRLPRPRPRPTGHPRP is higher in “shrunken log2 fold change” value: 0.377 for the first, 0.63 for the second.

With RRIRFRPPRLPRPRPRPMLCPRP the “shrunken log2 fold change” value was -0.103.
